{
  "source": "patent US20210403586A1",
  "about": "“MUTANT OF RANKL AND PHARMACEUTICAL COMPOSITION COMPRISING SAME FOR PREVENTING OR TREATING OSTEOPOROSIS” (INDUSTRY-ACADEMIC COOPERATION FOUNDATION CHOSUN UNIVERSITY, priority 2018, published 2021)",
  "tested_on": "RANKL",
  "test": "ELISA of serum RANKL levels",
  "format": "in vivo, mouse",
  "conditions": "wtRANKL 2.0 mg/kg s.c. to non-immunized mice, or to mice immunized with mtRANKL",
  "experimental": "A commercially available enzyme immunoassay kit (R & D Systems, Minn., USA) was used to measure RANKL levels in the serum of mice according to the manufacturer's protocol. Absorbance (450 nm) was measured in a colorimetric microplate reader (BioTek, Winooski, USA). The reading of the absorbance was then subtracted from the reading at 570 nm.\n17-week-old […] BALB/c mice were equally divided into 3 groups. The group was divided into a negative control group in which PBS was intraperitoneally injected, a group in which only wtRANKL was injected, and a group in which wtRANKL was injected after immunization with mtRANKL for 52 days. mtRANKL was injected after mixing with an aluminum hydroxide adjuvant. The immunization process started with 1st immunization of mtRANKL at 52 days, 2nd immunization at 39 days, 3rd immunization at 14 days each before injection of wtRANKL, and a total of 3 immunizations was performed. The amount of mtRANKL was 0.2 mg per mouse.\nAfter 52 days, PBS was injected into the negative control group and wtRANKL was injected into the other two groups. Next day, wtRANKL was injected once more. wtRANK was subcutaneously injected (2.0 mg/kg). Serum was collected to determine the titer of anti-RANKL antibody. Then, after extracting tibias, the adhesive soft tissues of tibias were removed.",
  "data": [
    {"molecule": "mRANKL-MT3: mouse RANKL mutant: K180R, D189I, R190K, H223F, H224Y; nucleic acid SEQ ID NO: 3 (protein, UniProt O35235 158-316, looked up, variant K180R D189I R190K H223F H224Y) KPEAQPFAHLTINAASIPSGSHRVTLSSWYHIKGWAKISNMTLSNGKLRVNQDGFYYLYANICFRFYETSGSVPTDYLQLMVYVVKTSIKIPSSHNLMKGGSTKNWSGNSEFHFYSINVGGFFKLRAGEEISIQVSNPSLLDPDQDATYFGAFKVQDID", "values": [
      {"measurement": "level of RANKL in the blood (ELISA)", "result": "eliminated"}
    ]}
  ]
}
